Test results as given in FireProtDB (doi:10.1021/bi060038+).

Details: pH 7, CD, sodium phosphate 10 mM, reversible: Yes, whole UniProt chain shown; for denaturant m value / unfolding free energy: 25 °C; for Tm / unfolding enthalpy (van 't Hoff): Thermal
[1] = Halalkalibacterium halodurans (strain ATCC BAA-125 / DSM 18197 / FERM 7344 / JCM 9153 / C-125), GdnHCl
[2] = Halalkalibacterium halodurans (strain ATCC BAA-125 / DSM 18197 / FERM 7344 / JCM 9153 / C-125), Urea
[3] = Halalkalibacterium halodurans (strain ATCC BAA-125 / DSM 18197 / FERM 7344 / JCM 9153 / C-125)
[4] = Streptococcus thermophilus, GdnHCl
[5] = Streptococcus thermophilus, Urea
[6] = Oceanobacillus iheyensis (strain DSM 14371 / CIP 107618 / JCM 11309 / KCTC 3954 / HTE831), GdnHCl
[7] = Oceanobacillus iheyensis (strain DSM 14371 / CIP 107618 / JCM 11309 / KCTC 3954 / HTE831), Urea
[8] = Oceanobacillus iheyensis (strain DSM 14371 / CIP 107618 / JCM 11309 / KCTC 3954 / HTE831)
[9] = Bacillus subtilis (strain 168), GdnHCl
[10] = Bacillus subtilis (strain 168), Urea
[11] = Geobacillus stearothermophilus, GdnHCl
[12] = Geobacillus stearothermophilus, Urea

B1: Phosphocarrier protein HPr wild type, Q9K8D2 (protein)
chain: MAEKTFTITAETGIHARPATQLVNKAGQYSSEITLEYKGKAVNLKSIMGVMSLGVGKGAQVTIKAEGSDEAEALKGIEEVIKEGLGE
For B1, which denaturant m value [1] is on record?
The denaturant m value was 2.36 kcal/mol/M.

And the unfolding free energy [1]?
The unfolding free energy was 5.3 kcal/mol.

What about the denaturant m value [2] of the same protein?
The denaturant m value was 0.9 kcal/mol/M.

And the unfolding free energy [2]?
Its unfolding free energy is 6.8 kcal/mol.

And the Tm [3]?
The Tm was 82.3 °C.

What about the “unfolding enthalpy (van 't Hoff)” value [3] of the same protein?
The value was 87 kcal/mol.

B2: Phosphocarrier protein HPr wild type, Q8VP89 (protein)
chain: MASKDFHIVAETGIHARPATLLVQTASKFASDITLEYKGKAVNLKSIMGVMSLGVGQGADVTISAEGPDADDAIAAIAETMTKEGLA
With B2 as the protein, how does the denaturant m value [4] read?
The denaturant m value was 2.75 kcal/mol/M.

And the unfolding free energy [4]?
Its unfolding free energy is 5.4 kcal/mol.

What about the denaturant m value [5] of the same protein?
The denaturant m value was 0.86 kcal/mol/M.

And the unfolding free energy [5]?
The unfolding free energy was 6.3 kcal/mol.

B3: Phosphocarrier protein HPr wild type, Q8ENY1 (protein)
chain: MKSQTFTITAETGVHARPATLLVNKAGQFDSEIEVSYKGKQVNLKSIMGVMSLGIPKGAEIEVSADGKDEEDALNGVAEVIKEHLGE
With B3 as the protein, how does the denaturant m value [6] read?
The denaturant m value was 2.56 kcal/mol/M.

What about the unfolding free energy [6] of the same protein?
Its unfolding free energy is 1.4 kcal/mol.

What about the denaturant m value [7] of the same protein?
Its denaturant m value is 1.27 kcal/mol/M.

And the unfolding free energy [7]?
Its unfolding free energy is 3.4 kcal/mol.

What about the Tm [8] of the same protein?
The Tm was 58 °C.

And the “unfolding enthalpy (van 't Hoff)” value [8]?
The value was 59 kcal/mol.

B4: Phosphocarrier protein HPr wild type, P08877 (protein)
chain: MAQKTFKVTADSGIHARPATVLVQTASKYDADVNLEYNGKTVNLKSIMGVMSLGIAKGAEITISASGADENDALNALEETMKSEGLGE
For B4, which denaturant m value [9] is on record?
Its denaturant m value is 3.28 kcal/mol/M.

And the unfolding free energy [9]?
Its unfolding free energy is 3.4 kcal/mol.

What about the denaturant m value [10] of the same protein?
The denaturant m value was 1.08 kcal/mol/M.

And the unfolding free energy [10]?
The unfolding free energy was 5 kcal/mol.

And the Tm (Bacillus subtilis (strain 168))?
The Tm was 73 °C.

What about the “unfolding enthalpy (van 't Hoff)” value (Bacillus subtilis (strain 168)) of the same protein?
The value was 77 kcal/mol.

B5: Phosphocarrier protein HPr wild type, P42013 (protein)
chain: MAEKTFKVVSDSGIHARPATILVQTASKFNSEIQLEYNGKTVNLKSIMGVMSLGIPKGATIKITAEGADAAEAMAALTDTLAKEGLAE
Which denaturant m value [11] does the source give for B5 here?
The denaturant m value was 2.43 kcal/mol/M.

And the unfolding free energy [11]?
The unfolding free energy was 6.7 kcal/mol.

What about the denaturant m value [12] of the same protein?
The denaturant m value was 0.98 kcal/mol/M.

What about the unfolding free energy [12] of the same protein?
Its unfolding free energy is 8.2 kcal/mol.

What about the Tm (Geobacillus stearothermophilus) of the same protein?
Its Tm is 88.3 °C.

What about the “unfolding enthalpy (van 't Hoff)” value (Geobacillus stearothermophilus) of the same protein?
Its value is 99 kcal/mol.
